Laboratory results reported in CN114702585A (SHENZHEN BINDEBIO TECH CO LTD, dated 2022).

Target: T1, CD22蛋白 (购自义翘神州) (UniProt P20273 20-687)
T1 construct: Bought recombinant protein; also called CD22蛋白抗原
T1 sequence (looked up): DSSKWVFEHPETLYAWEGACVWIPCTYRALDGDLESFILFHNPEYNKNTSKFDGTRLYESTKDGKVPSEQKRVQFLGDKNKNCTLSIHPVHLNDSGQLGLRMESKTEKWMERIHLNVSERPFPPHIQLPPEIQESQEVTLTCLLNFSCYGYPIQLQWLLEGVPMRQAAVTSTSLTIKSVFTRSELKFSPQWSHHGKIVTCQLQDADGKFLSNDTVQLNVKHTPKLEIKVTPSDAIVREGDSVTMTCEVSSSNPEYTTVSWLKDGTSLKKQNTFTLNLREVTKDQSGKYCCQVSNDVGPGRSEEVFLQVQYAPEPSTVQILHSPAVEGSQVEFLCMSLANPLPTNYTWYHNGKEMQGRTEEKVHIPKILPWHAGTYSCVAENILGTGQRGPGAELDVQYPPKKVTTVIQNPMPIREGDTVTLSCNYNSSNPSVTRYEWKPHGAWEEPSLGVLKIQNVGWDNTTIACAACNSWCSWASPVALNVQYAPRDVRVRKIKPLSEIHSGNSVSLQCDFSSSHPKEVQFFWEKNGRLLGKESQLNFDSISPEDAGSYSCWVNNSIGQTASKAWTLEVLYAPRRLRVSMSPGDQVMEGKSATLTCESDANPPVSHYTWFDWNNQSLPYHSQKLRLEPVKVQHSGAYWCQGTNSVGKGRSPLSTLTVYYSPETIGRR
Experiment: BLI (OCTET K2), CD22 protein loaded on AHC sensor, 4F6 in solution 500-5.21 nM

- Kd: 3.14 nM
B1: 抗CD22的单克隆抗体4F6 (antibody, V domains shown)
VH: EVLLQQSGPELVKPGASVKIPCKASGYTFTDYNMDWVKQSHGKSLEWIGDIDPNNGITIYNQKFKGKATLTIDKSSSTAYMELRSLTSEDTAVYYCARDRYDRGYALDYWGQGTSVTVSS
VL: DIVMTQSPSSLAMSVGQKVTMSCKSSQSLLNSSNQKNYLAWHQQKTGQSPKLLVYFASIRDSGVPDRFIGSGSGTDFTLTINSVQAEDLADYFCQQHYSTPFTFGSGTKLEIK
notes: also called 4F6抗体; CD22单克隆抗体
